# Assay results as given in patent US8299097B2, “Methods for treating inflammatory disorders” (The Brigham and Women's Hospital, Inc., priority 2008, dated 2012).
# How the values were obtained:
# LAD2 cells [1] = experiment: ERK activation in LAD2 cells with apyrase; assay type: cell-based, human; settings: LTE4 500 nM, 15 minutes
# Procedure: (§1) FIG. 9. Effect of apyrase treatment on LT-mediated activation of LAD2 cells. 9A. […] Concentrations of MIP-1β were measured by ELISA. 9B. […] Lysates were resolved by SDS-PAGE and probed with the indicated antibodies against phospho- and total ERK. Results in 9A are the mean±½ range from two experiments, while 9B is representative of two experiments.
# (§2) Pre-treatment of the LAD2 cells with 2-MesAMP blocked the LTE4-mediated increment in MIP-1β production by >50% (FIG. 2B). […] To exclude potential off-target effects of the inhibitors, samples of LAD2 cells were transfected with lentiviruses encoding a P2Y12 sequence-specific shRNA, a CysLT1R-specific shRNA, or an empty vector control before stimulation. […] LTE4- and LTD4-dependent production of PGD2 were abrogated by the knockdowns of P2Y12 and CysLT1R, respectively (FIG. 2C, bottom). Neither GPCR knockdown altered MIP-1β generation or PGD2 production in response to IgE-anti-IgE (FIG. 2C). LTE4-mediated MIP-1β generation (FIG. 9A) and ERK activation (FIG. 9B) were not altered by treatment of LAD2 cells with apyrase to degrade extracellular ADP.
# After stimulation with the respective agonists, LAD2 cells and hMCs (0.5×10^6) were lysed with lysis buffer (BD Bioscience) supplemented with protease inhibitor cocktail (Roche) and sodium vanadate (1 mM). Lysates were subjected to 4-12% SDS-PAGE and transferred to PVDF membranes. […]
# LAD2 cells [2] = experiment: MIP-1β generation by LAD2 cells (ELISA); assay type: cell-based, human; settings: apyrase 10 μM, LTE4 500 nM, 6 h
# Procedure: FIG. 2. Requirement for P2Y12 receptors in LTE4-mediated LAD2 cell activation. 2A. Calcium flux of LAD2 cells stimulated with the indicated agonists (500 nM) in the presence or absence of the P2Y12 receptor-selective antagonist 2-MeSAMP (100 μM). […] 2B. […] Cells sensitized overnight with IgE and challenged with anti-IgE were used as the positive control. 2C. […] Results in 2B and 2C are mean±SEM from three independent experiments each. 2D. Effect of shRNA-mediated knockdown of P2Y12 receptor mRNA expression by LAD2 cells.
# as §1, §2
# The concentration of MIP-1β was measured by an ELISA (ENDOGEN®). PGD2 was quantitated by a PGD2-methoxylamine hydrochloride (PGD2-MOX) assay.
# human P2Y12 = human P2Y12 (Homo sapiens, UniProt Q9H244); experiment: ERK activation (phosphorylation immunoblot) in P2Y12-expressing CHO cells; assay type: cell-based; parameters: polyhistidine (HIS) tag (C); expressed in transfected cells; settings: 2-MesAMP 100 μM, MK571 1 μM
# Procedure: FIG. 1. Activation by recombinant human P2Y12 receptors in response to cys-LTs. The human P2Y12 receptor cDNA was cloned in forward and reverse orientation into the expression vector pEF1/His B and transfected into CHO cells using Fugene HD reagent. Stably-expressing clones were selected using G418 (1000 μg/ml), and expression of the construct was confirmed by cytofluorographic detection of the HIS tag. 1A. […] Results in second experiment were identical. 1B. SDS-PAGE immunoblots showing phosphorylation of ERK2 by CHO cells stably expressing human P2Y12 receptors in reverse (negative control) or forward orientations. […] The blots were stripped and re-probed with an antibody (Ab) recognizing total ERK1 and ERK2. […] 1C. Effect of the selective P2Y12 receptor antagonist 2-MesAMP (MeS) on ligand-induced ERK phosphorylation. P2Y12 receptor expressing CHO cells were stimulated with the same doses of agonists used in 1A, in the absence or presence of 2-MesAMP (100 μM). 1D. Comparison of P2Y12 receptor-mediated responses to cys-LTs with those of recombinant human CysLT1R and CysLT2R expressed in CHO cells, and the effect of the CysLT1R antagonist MK571 (1 μM). Data in 1B-1D are from individual experiments that were repeated at least 3 times with similar results.
# FIG. 8. […] Cells were stably transfected with the human P2Y12 construct and stimulated for 15 minutes with the indicated ligand concentrations. […] Results in a second experiment were similar.
# A P2Y12 receptor cDNA was amplified by reverse transcriptase polymerase chain reaction (RT-PCR) from RNA extracted from primary hMCs and cloned into a mammalian expression vector. Expression was confirmed by detection of a histidine (HIS) tag by flow cytometry. Another cohort of CHO cells were stably transfected with a P2Y12 receptor construct in reverse orientation as a negative control. […] The cys-LT-induced ERK activation blocked by pre-treatment of the cells with pertussis toxin (PTX), was attenuated by treatment with the P2Y12 receptor-selective antagonist 2-methylthioadenosine monophosphate (2-MesAMP) (FIG. 1C), and was resistant to MK571, an inhibitor that blocks CysLT1R and some P2Y receptors (Mamedova, L., et al. 2005. Biochem. Pharmacol. 71:115-125). […] These responses were resistant to PTX and 2-MesAMP, and susceptible to MK571 in the case of the CysLT1R transfectants.
# A human P2Y12 receptor cDNA was amplified by 30 cycles of PCR from reverse-transcribed total RNA extracted from primary cord blood hMCs. The primer sequences were 5′-[…] (SEQ ID NO: 1) and 3′-[…] (SEQ ID NO: 2). The fragment was cloned into a TA vector (INVITROGEN™). After verifying the nucleotide sequence, the fragment was subcloned into the multiple cloning site of the expression vector pEF1/His B, encoding a C-terminal polyhistidine (HIS) tag. […]
# human CysLT1R = biological target: T1, human CysLT1R (Homo sapiens, UniProt Q9Y271); experiment: ERK activation in CysLT1R CHO transfectants; assay type: cell-based
# T1 construct: expressed in transfected cells
# T1 sequence (Q9Y271 1-337): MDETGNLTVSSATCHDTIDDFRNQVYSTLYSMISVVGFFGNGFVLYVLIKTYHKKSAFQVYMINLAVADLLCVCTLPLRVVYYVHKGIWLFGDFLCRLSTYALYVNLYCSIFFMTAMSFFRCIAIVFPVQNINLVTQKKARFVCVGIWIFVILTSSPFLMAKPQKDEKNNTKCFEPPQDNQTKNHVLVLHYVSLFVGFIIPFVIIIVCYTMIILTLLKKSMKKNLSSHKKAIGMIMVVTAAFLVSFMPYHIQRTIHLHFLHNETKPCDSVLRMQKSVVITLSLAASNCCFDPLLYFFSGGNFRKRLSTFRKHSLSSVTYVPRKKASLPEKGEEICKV
# Procedure: (§3) FIG. 1. Activation by recombinant human P2Y12 receptors in response to cys-LTs. The human P2Y12 receptor cDNA was cloned in forward and reverse orientation into the expression vector pEF1/His B and transfected into CHO cells using Fugene HD reagent. Stably-expressing clones were selected using G418 (1000 μg/ml), and expression of the construct was confirmed by cytofluorographic detection of the HIS tag. 1A. […] 1B. SDS-PAGE immunoblots showing phosphorylation of ERK2 by CHO cells stably expressing human P2Y12 receptors in reverse (negative control) or forward orientations. […] The blots were stripped and re-probed with an antibody (Ab) recognizing total ERK1 and ERK2. […] 1C. Effect of the selective P2Y12 receptor antagonist 2-MesAMP (MeS) on ligand-induced ERK phosphorylation. P2Y12 receptor expressing CHO cells were stimulated with the same doses of agonists used in 1A, in the absence or presence of 2-MesAMP (100 μM). 1D. Comparison of P2Y12 receptor-mediated responses to cys-LTs with those of recombinant human CysLT1R and CysLT2R expressed in CHO cells, and the effect of the CysLT1R antagonist MK571 (1 μM).
# (§4) A P2Y12 receptor cDNA was amplified by reverse transcriptase polymerase chain reaction (RT-PCR) from RNA extracted from primary hMCs and cloned into a mammalian expression vector. Expression was confirmed by detection of a histidine (HIS) tag by flow cytometry. […]
# human CysLT2R = biological target: T2, human CysLT2R (Homo sapiens, UniProt Q9NS75); experiment: ERK activation in CysLT2R CHO transfectants; assay type: cell-based
# T2 construct: expressed in transfected cells
# T2 sequence (Q9NS75 1-346): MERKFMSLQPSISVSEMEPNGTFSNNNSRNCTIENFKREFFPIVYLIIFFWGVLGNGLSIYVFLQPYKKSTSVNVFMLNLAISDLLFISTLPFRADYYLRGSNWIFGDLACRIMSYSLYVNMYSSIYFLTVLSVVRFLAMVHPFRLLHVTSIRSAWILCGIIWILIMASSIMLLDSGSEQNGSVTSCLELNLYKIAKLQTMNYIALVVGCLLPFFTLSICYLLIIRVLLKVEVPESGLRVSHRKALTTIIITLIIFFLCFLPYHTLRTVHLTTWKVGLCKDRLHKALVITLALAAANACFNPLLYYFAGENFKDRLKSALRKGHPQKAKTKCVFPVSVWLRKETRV
# Procedure: as §3, §4
# human P2Y12, sequence (Q9H244 whole entry): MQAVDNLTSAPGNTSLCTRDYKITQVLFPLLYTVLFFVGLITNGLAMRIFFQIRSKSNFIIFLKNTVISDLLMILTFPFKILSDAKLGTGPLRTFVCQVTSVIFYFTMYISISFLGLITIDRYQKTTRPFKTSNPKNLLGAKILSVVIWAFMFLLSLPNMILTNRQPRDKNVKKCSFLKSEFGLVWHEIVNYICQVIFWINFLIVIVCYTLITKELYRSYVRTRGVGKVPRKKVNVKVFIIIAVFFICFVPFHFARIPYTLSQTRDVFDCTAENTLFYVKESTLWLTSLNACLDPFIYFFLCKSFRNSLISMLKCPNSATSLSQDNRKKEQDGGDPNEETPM
substance,measurement,setting,value
apyrase,effect on LTE4-mediated ERK activation,LAD2 cells [1],not altered
same,effect on LTE4-mediated MIP-1β generation,LAD2 cells [2],not altered
pertussis toxin,effect on cys-LT-induced ERK activation,human P2Y12,blocked
same,effect on cys-LT-induced ERK activation,human CysLT1R,resistant
same,effect on cys-LT-induced ERK activation,human CysLT2R,resistant
